Laboratory results published in PMC4013577.

What was measured:
[1] = target: anti-hIgG (IgG2a); test: SPR; Autolab ESPRIT, room temperature, PBS pH 7.4; anti-hIgG adsorbed on the Cal-4 derivative 1 (ethylester) SAM on gold, blocked with 0.1 mg/mL BSA, then 100 μL of 10 μg/mL protein G
[2] = target: anti-hIgG (IgG2a); test: SPR; Autolab ESPRIT, room temperature, PBS pH 7.4; anti-hIgG adsorbed on the Cal-4 derivative 2 (carboxylic acid) SAM on gold, blocked with 0.1 mg/mL BSA, then 100 μL of 10 μg/mL protein G

Protein G (from UniProt P06654 34-417) (natural protein)
SPR angle shift [1]: 32.6 m°
SPR angle shift [2]: 94 m°
